{"source": "paper doi:10.1101/2024.09.30.615892", "key": {"[1]": {"tested_on": "T1, EppR-His6 (Acinetobacter baumannii ATCC17978), ORF:cce4f89b", "T1 sequence": "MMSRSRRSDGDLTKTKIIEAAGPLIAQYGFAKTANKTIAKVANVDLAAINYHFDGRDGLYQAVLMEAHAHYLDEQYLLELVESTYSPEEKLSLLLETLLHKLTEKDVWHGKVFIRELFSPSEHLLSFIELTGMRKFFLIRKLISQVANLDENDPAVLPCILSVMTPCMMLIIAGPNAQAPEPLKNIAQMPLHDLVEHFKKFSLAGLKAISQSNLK", "test": "EMSA"}, "[2]": {"tested_on": "EppR-His6 (Acinetobacter baumannii ATCC17978)", "test": "EMSA"}}, "data": [{"substance": "AATAAAGTAGAGCACAGCTTAATTTCAAATTTAAAAGTTGTGGATAAACAAATTGATCTAGAAAAAATGATCAACGGATAAAGGAATATTTAATTTTTTTATGCGGGCCTCTACCGCTTATAGAACAGTTTTTAAACAATTTTACTTATAGCTTCATTCA (double strand) [umuDC0636-0637 promoter]", "values": [{"measurement": "binding", "setting": "[1]", "result": "binds"}]}, {"substance": "ACCATTTTGAAATCGTAACAAATTCAAGATAAATGGTAGAGTTGAGTAAAGAGAAATTCAAATTTAAAAAATTGTGGATAAACAAGTAAAAGTCAAAAATTGTCGCAGTATCTGGCGCATTTGGTCGGAAATTCTTCAGTTCTGATCTAG (double strand) [umuC2015 promoter]", "values": [{"measurement": "binding", "setting": "[1]", "result": "binds"}]}, {"substance": "eppR promoter", "values": [{"measurement": "Kd", "setting": "[2]", "result": 123, "unit": "nM"}]}, {"substance": "ATGTTTCCCCTAGCTTGATTTTGTAACATATTCAAGATGATATTCTAGAGATGAGCATAAATTCAAATTTAAAAAGTTGTGGATAAACAAGGGGAAGTCAAAAACTGACGTAGCCAAAAGTGCATTTGGTCGGAATTTATGCATTGCTGTACAGTGAGGCAACCATAGCATGGGAATCAAAATATTAGCTTTGAGATTGTAAATCTTTGTGGAACTTAATGTTCCACACTATTGCTTATTTATAGCAAAT (double strand) [umuDC1174-1173 promoter]", "values": [{"measurement": "binding", "setting": "[1]", "result": "binds"}]}, {"substance": "CTTTTTTATTCATCTTTTTGGCCTTCTTATTAAATTCAAATTTACATAGTTTAAATTCAATTTAAATTTAAATTACCTTAATCTTTGAATAAAAGATATACTTTTATGATGAAATAAAATTAGGTTTAAACATGTCC (double strand) [eppR promoter]", "values": [{"measurement": "Kd", "setting": "[1]", "result": 123, "unit": "nM"}]}, {"substance": "TATTTCATCCCCTTACTCATTAACTGAAATCTGCATTTTGAATTTGTAACATAATCAAGTTAACAAAATTACGGGCTGATATCTAGGGGAGTTTCAGTTGTTCGTCGAAATTATAGGTAGGAGATAAAATCTATGAAATGTCAGTTATTGATATGGAAATGTCTGAAAATGATAAGTTTTAATTGGTTATGATCGGAAATATAAGAGCTATATTTAATGGATGAGTTGAGTCTTTTAAATGTAGTAATGC (double strand) [umuC2008 promoter]", "values": [{"measurement": "binding", "setting": "[1]", "result": "binds"}]}, {"substance": "ACTCATATTTAAGTGTTCAGAATTTCATTGATAAAAATCAAAACAGTCAGTAATAAGAACTATTTCACAATAGGTTTTGATTCTCTTCAAATTACCATTTCCGTTTTAACATCCCTGTTAAAAGCAAAATGGATTAAAATCTGATCATGAAATTTATTGTTATGCAAAAAAAATATTTCGTCAACTTGAAAATGTAACTTTTTCAAGTTACATTGTTTGTGTAGGATTTGAACGGTGAAATGGAGGCGAT (double strand) [umuDAb (1389) promoter]", "values": [{"measurement": "binding", "setting": "[1]", "result": "binds"}]}]}
